The Human Domainome abundance scans (Beltran et al. 2025)
± gives the uncertainty stated by the source.

B1: Apoptosis-associated speck-like protein containing a CARD, residues 114 to 194; numbered along this chain, Q9ULZ3 (parent)
chain: FIDQHRAALIARVTNVEWLLDALYGKVLTDEQYQAVRAEPTNPSKMRKLFSFTPAWNWTCKDLLLQALRESQSYLVEDLER

Variants of: B1
Assay: abundance fitness (aPCA) (normalised: wild type 0, dead -1); higher = more abundant; growth selection in yeast, the domain comes from the species named
Settings: Homo sapiens
Variant FIDQHRAALIARVTNVEWLLDYLYGKVLTDEQYQAVRAEPTNPSKMRKLFSFTPAWNWTCKDLLLQALRESQSYLVEDLER has an abundance fitness of -0.004 ± 0.13. Variant FIDQHRAALIARVTNVEWLLDPLYGKVLTDEQYQAVRAEPTNPSKMRKLFSFTPAWNWTCKDLLLQALRESQSYLVEDLER has an abundance fitness of -1 ± 0.2. Work on FIDQHRAALIARVTNVEWLLDSLYGKVLTDEQYQAVRAEPTNPSKMRKLFSFTPAWNWTCKDLLLQALRESQSYLVEDLER yielded an abundance fitness of -0.057 ± 0.07. In the case of FIDQHRAALIARVTNVEWLLDCLYGKVLTDEQYQAVRAEPTNPSKMRKLFSFTPAWNWTCKDLLLQALRESQSYLVEDLER, the abundance fitness is reported as -0.127 ± 0.092. For FIDQHRAALIARVTNVEWLLDMLYGKVLTDEQYQAVRAEPTNPSKMRKLFSFTPAWNWTCKDLLLQALRESQSYLVEDLER, the abundance fitness was -0.183 ± 0.069. FIDQHRAALIARVTNVEWLLDRLYGKVLTDEQYQAVRAEPTNPSKMRKLFSFTPAWNWTCKDLLLQALRESQSYLVEDLER gave an abundance fitness of 0.094 ± 0.04. With FIDQHRAALIARVTNVEWLLDHLYGKVLTDEQYQAVRAEPTNPSKMRKLFSFTPAWNWTCKDLLLQALRESQSYLVEDLER the abundance fitness was -0.116 ± 0.22. Variant FIDQHRAALIARVTNVEWLLDGLYGKVLTDEQYQAVRAEPTNPSKMRKLFSFTPAWNWTCKDLLLQALRESQSYLVEDLER has an abundance fitness of -0.4 ± 0.056. With FIDQHRAALIARVTNVEWLLDLLYGKVLTDEQYQAVRAEPTNPSKMRKLFSFTPAWNWTCKDLLLQALRESQSYLVEDLER the abundance fitness was -0.135 ± 0.057. In the case of FIDQHRAALIARVTNVEWLLDVLYGKVLTDEQYQAVRAEPTNPSKMRKLFSFTPAWNWTCKDLLLQALRESQSYLVEDLER, the abundance fitness is reported as -0.476 ± 0.074. FIDQHRAALIARVTNVEWLLDQLYGKVLTDEQYQAVRAEPTNPSKMRKLFSFTPAWNWTCKDLLLQALRESQSYLVEDLER showed an abundance fitness of 0.063 ± 0.062. In the case of FIDQHRAALIARVTNVEWLLDILYGKVLTDEQYQAVRAEPTNPSKMRKLFSFTPAWNWTCKDLLLQALRESQSYLVEDLER, the abundance fitness is reported as 0.126 ± 0.28. FIDQHRAALIARVTNVEWLLDNLYGKVLTDEQYQAVRAEPTNPSKMRKLFSFTPAWNWTCKDLLLQALRESQSYLVEDLER showed an abundance fitness of -0.08 ± 0.16. Variant FIDQHRAALIARVTNVEWLLDKLYGKVLTDEQYQAVRAEPTNPSKMRKLFSFTPAWNWTCKDLLLQALRESQSYLVEDLER has an abundance fitness of 0.331 ± 0.081. In the case of FIDQHRAALIARVTNVEWLLDTLYGKVLTDEQYQAVRAEPTNPSKMRKLFSFTPAWNWTCKDLLLQALRESQSYLVEDLER, the abundance fitness is reported as -0.146 ± 0.073. For FIDQHRAALIARVTNVEWLLDDLYGKVLTDEQYQAVRAEPTNPSKMRKLFSFTPAWNWTCKDLLLQALRESQSYLVEDLER, the abundance fitness was -0.302 ± 0.21. For FIDQHRAALIARVTNVEWLLDWLYGKVLTDEQYQAVRAEPTNPSKMRKLFSFTPAWNWTCKDLLLQALRESQSYLVEDLER, the abundance fitness was -0.183 ± 0.06. In the case of FIDQHRAALIARVTNVEWLLYALYGKVLTDEQYQAVRAEPTNPSKMRKLFSFTPAWNWTCKDLLLQALRESQSYLVEDLER, the abundance fitness is reported as -0.805 ± 0.11. For FIDQHRAALIARVTNVEWLLDAEYGKVLTDEQYQAVRAEPTNPSKMRKLFSFTPAWNWTCKDLLLQALRESQSYLVEDLER, the abundance fitness was -0.719 ± 0.14. With FIDQHRAALIARVTNVEWLLDATYGKVLTDEQYQAVRAEPTNPSKMRKLFSFTPAWNWTCKDLLLQALRESQSYLVEDLER the abundance fitness was -0.943 ± 0.16. With FIDQHRAALIARVTNVEWLLDACYGKVLTDEQYQAVRAEPTNPSKMRKLFSFTPAWNWTCKDLLLQALRESQSYLVEDLER the abundance fitness was -0.444 ± 0.14. In the case of FIDQHRAALIARVTNVEWLLDAIYGKVLTDEQYQAVRAEPTNPSKMRKLFSFTPAWNWTCKDLLLQALRESQSYLVEDLER, the abundance fitness is reported as -0.564 ± 0.29. FIDQHRAALIARVTNVEWLLDASYGKVLTDEQYQAVRAEPTNPSKMRKLFSFTPAWNWTCKDLLLQALRESQSYLVEDLER showed an abundance fitness of -0.879 ± 0.13. FIDQHRAALIARVTNVEWLLDARYGKVLTDEQYQAVRAEPTNPSKMRKLFSFTPAWNWTCKDLLLQALRESQSYLVEDLER showed an abundance fitness of -0.83 ± 0.088. FIDQHRAALIARVTNVEWLLDANYGKVLTDEQYQAVRAEPTNPSKMRKLFSFTPAWNWTCKDLLLQALRESQSYLVEDLER gave an abundance fitness of -1.06 ± 0.38. Work on FIDQHRAALIARVTNVEWLLDAGYGKVLTDEQYQAVRAEPTNPSKMRKLFSFTPAWNWTCKDLLLQALRESQSYLVEDLER yielded an abundance fitness of -0.911 ± 0.09. Variant FIDQHRAALIARVTNVEWLLDAFYGKVLTDEQYQAVRAEPTNPSKMRKLFSFTPAWNWTCKDLLLQALRESQSYLVEDLER has an abundance fitness of -0.737 ± 0.24. FIDQHRAALIARVTNVEWLLDADYGKVLTDEQYQAVRAEPTNPSKMRKLFSFTPAWNWTCKDLLLQALRESQSYLVEDLER showed an abundance fitness of -0.962 ± 0.22. For FIDQHRAALIARVTNVEWLLDAQYGKVLTDEQYQAVRAEPTNPSKMRKLFSFTPAWNWTCKDLLLQALRESQSYLVEDLER, the abundance fitness was -0.739 ± 0.24. FIDQHRAALIARVTNVEWLLDAVYGKVLTDEQYQAVRAEPTNPSKMRKLFSFTPAWNWTCKDLLLQALRESQSYLVEDLER showed an abundance fitness of -0.611 ± 0.074. In the case of FIDQHRAALIARVTNVEWLLDAKYGKVLTDEQYQAVRAEPTNPSKMRKLFSFTPAWNWTCKDLLLQALRESQSYLVEDLER, the abundance fitness is reported as -0.645 ± 0.15. FIDQHRAALIARVTNVEWLLDAAYGKVLTDEQYQAVRAEPTNPSKMRKLFSFTPAWNWTCKDLLLQALRESQSYLVEDLER gave an abundance fitness of -0.753 ± 0.075. FIDQHRAALIARVTNVEWLLDAMYGKVLTDEQYQAVRAEPTNPSKMRKLFSFTPAWNWTCKDLLLQALRESQSYLVEDLER gave an abundance fitness of -0.392 ± 0.085. FIDQHRAALIARVTNVEWLLDAHYGKVLTDEQYQAVRAEPTNPSKMRKLFSFTPAWNWTCKDLLLQALRESQSYLVEDLER showed an abundance fitness of -0.698 ± 0.34.
